Target: T1, Human neuroglobin (human, UniProt Q9NPG2 1-151)
T1 sequence (looked up): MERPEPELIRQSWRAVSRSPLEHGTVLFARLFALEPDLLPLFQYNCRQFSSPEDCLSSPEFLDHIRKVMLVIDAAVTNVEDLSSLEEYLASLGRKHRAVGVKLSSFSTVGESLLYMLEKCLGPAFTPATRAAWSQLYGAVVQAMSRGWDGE
Assay: ITC

B1: Human cytochrome c I81N variant (natural protein)
chain: not shown
modifications: heme c covalently linked to the peptide chain via two thioether bonds through the CXXCH motif
B1 was tested, and the Ka was 5300 M⁻¹, the Kd was 189 µM and the “dH, fold of that of WT hCyt c binding to Ngb” value was about 6 fold.

— article PMC8992277 (ACS Omega, 2022)
